According to the MegaScale stability set (Tsuboyama et al. 2023):

B1: EHEE_rd4_0086 (parent)
chain: EIHIRTNGEEQARKVYKMLAKRNYDVKIEQHNGQWVVTAS

Variants of: B1
Experiment: folding stability dG (cDNA display proteolysis); higher = more stable
Conditions: PBS, room temperature
With EIHIRTNGEEQARKVYKMLAKRNYKVKIEQHNGQWVVTAS the “folding stability dG” value was 2.36 kcal/mol. For EIHIRTNGEEQARKVYKMLAKRNYPVKIEQHNGQWVVTAS, the “folding stability dG” value was 1.08 kcal/mol. With EIHIRTNGEEQARKVYKMLAKRNYIVKIEQHNGQWVVTAS the “folding stability dG” value was 2.34 kcal/mol. In the case of EIHIRTNGEEQARKVYKMLAKRNYNVKIEQHNGQWVVTAS, the “folding stability dG” value is reported as 2.27 kcal/mol. With EIHIRTNGEEQARKVYKMLAKRNYMVKIEQHNGQWVVTAS the “folding stability dG” value was 2.21 kcal/mol. With EIHIRTNGEEQARKVYKMLAKRNYLVKIEQHNGQWVVTAS the “folding stability dG” value was 2.21 kcal/mol. In the case of EIHIRTNGEEQARKVYKMLAKRNYDVWIEQHNGQWVVTAS, the “folding stability dG” value is reported as 1.52 kcal/mol. In the case of EIHIRTNGEEQARKVYKMLAKRNYDVRIEQHNGQWVVTAS, the “folding stability dG” value is reported as 1.95 kcal/mol. In the case of EIHIRTNGEEQARKVYKMLAKRNYDVFIEQHNGQWVVTAS, the “folding stability dG” value is reported as 1.33 kcal/mol. For EIHIRTNGEEQARKVYKMLAKRNYDVDIEQHNGQWVVTAS, the “folding stability dG” value was 0.311 kcal/mol. With EIHIRTNGEEQARKVYKMLAKRNYDVIIEQHNGQWVVTAS the “folding stability dG” value was 1.45 kcal/mol. With EIHIRTNGEEQARKVYKMLAKRNYDVNIEQHNGQWVVTAS the “folding stability dG” value was 1.16 kcal/mol. For EIHIRTNGEEQARKVYKMLAKRNYDVHIEQHNGQWVVTAS, the “folding stability dG” value was 1.66 kcal/mol. In the case of EIHIRTNGEEQARKVYKMLAKRNYDVTIEQHNGQWVVTAS, the “folding stability dG” value is reported as 1.68 kcal/mol. In the case of EIHIRTNGEEQARKVYKMLAKRNYDVLIEQHNGQWVVTAS, the “folding stability dG” value is reported as 1.12 kcal/mol. In the case of EIHIRTNGEEQARKVYKMLAKRNYDVQIEQHNGQWVVTAS, the “folding stability dG” value is reported as 1.44 kcal/mol. In the case of EIHIRTNGEEQARKVYKMLAKRNYDVGIEQHNGQWVVTAS, the “folding stability dG” value is reported as 0.682 kcal/mol. With EIHIRTNGEEQARKVYKMLAKRNYDVVIEQHNGQWVVTAS the “folding stability dG” value was 1.45 kcal/mol. In the case of EIHIRTNGEEQARKVYKMLAKRNYDVAIEQHNGQWVVTAS, the “folding stability dG” value is reported as 1.26 kcal/mol. For EIHIRTNGEEQARKVYKMLAKRNYDVYIEQHNGQWVVTAS, the “folding stability dG” value was 1.45 kcal/mol. For EIHIRTNGEEQARKVYKMLAKRNYDVSIEQHNGQWVVTAS, the “folding stability dG” value was 1.5 kcal/mol. With EIHIRTNGEEQARKVYKMLAKRNYDVMIEQHNGQWVVTAS the “folding stability dG” value was 1.32 kcal/mol. For EIHIRTNGEEQARKVYKMLAKRNYDVEIEQHNGQWVVTAS, the “folding stability dG” value was 0.722 kcal/mol. With EIHIRTNGEEQARKVYKMLAKRNYDFKIEQHNGQWVVTAS the “folding stability dG” value was -0.182 kcal/mol. With EIHIRTNGEEQARKVYKMLAKRNYDAKIEQHNGQWVVTAS the “folding stability dG” value was 1.1 kcal/mol. In the case of EIHIRTNGEEQARKVYKMLAKRNYDYKIEQHNGQWVVTAS, the “folding stability dG” value is reported as -0.299 kcal/mol. In the case of EIHIRTNGEEQARKVYKMLAKRNYDGKIEQHNGQWVVTAS, the “folding stability dG” value is reported as -0.027 kcal/mol. With EIHIRTNGEEQARKVYKMLAKRNYDMKIEQHNGQWVVTAS the “folding stability dG” value was 0.338 kcal/mol. In the case of EIHIRTNGEEQARKVYKMLAKRNYDTKIEQHNGQWVVTAS, the “folding stability dG” value is reported as 0.533 kcal/mol. In the case of EIHIRTNGEEQARKVYKMLAKRNYDLKIEQHNGQWVVTAS, the “folding stability dG” value is reported as 0.829 kcal/mol. With EIHIRTNGEEQARKVYKMLAKRNYDIKIEQHNGQWVVTAS the “folding stability dG” value was 1.09 kcal/mol. In the case of EIHIRTNGEEQARKVYKMLAKRNYDSKIEQHNGQWVVTAS, the “folding stability dG” value is reported as -0.013 kcal/mol. In the case of EIHIRTNGEEQARKVYKMLAKRNYDWKIEQHNGQWVVTAS, the “folding stability dG” value is reported as 0.204 kcal/mol. For EIHIRTNGEEQARKVYKMLAKRNYDPKIEQHNGQWVVTAS, the “folding stability dG” value was 1.02 kcal/mol. For EIHIRTNGEEQARKVYKMLAKRNYDRKIEQHNGQWVVTAS, the “folding stability dG” value was -0.177 kcal/mol. In the case of EIHIRTNGEEQARKVYKMLAKRNYDVKIEQHIGQWVVTAS, the “folding stability dG” value is reported as 0.67 kcal/mol. With EIHIRTNGEEQARKVYKMLAKRNYDVKIEQHMGQWVVTAS the “folding stability dG” value was 1.64 kcal/mol. For EIHIRTNGEEQARKVYKMLAKRNYDVKIEQHEGQWVVTAS, the “folding stability dG” value was 1.76 kcal/mol. With EIHIRTNGEEQARKVYKMLAKRNYDVKIEQHKGQWVVTAS the “folding stability dG” value was 1.54 kcal/mol. With EIHIRTNGEEQARKVYKMLAKRNYDVKIEQHPGQWVVTAS the “folding stability dG” value was 0.291 kcal/mol. For EIHIRTNGEEQARKVYKMLAKRNYDVKIEQHFGQWVVTAS, the “folding stability dG” value was 1.45 kcal/mol. For EIHIRTNGEEQARKVYKMLAKRNYDVKIEQHHGQWVVTAS, the “folding stability dG” value was 1.55 kcal/mol. For EIHIRTNGEEQARKVYKMLAKRNYDVKIEQHVGQWVVTAS, the “folding stability dG” value was 0.762 kcal/mol. For EIHIRTNGEEQARKVYKMLAKRNYDVKIEQHTGQWVVTAS, the “folding stability dG” value was 0.816 kcal/mol. For EIHIRTNGEEQARKVYKMLAKRNYDVKIEQHDGQWVVTAS, the “folding stability dG” value was 1.9 kcal/mol. For EIHIRTNGEEQARKVYKMLAKRNYDVKIEQHGGQWVVTAS, the “folding stability dG” value was 1.86 kcal/mol. For EIHIRTNGEEQARKVYKMLAKRNYDVKIEQHSGQWVVTAS, the “folding stability dG” value was 1.38 kcal/mol. With EIHIRTNGEEQARKVYKMLAKRNYDVKIEQHRGQWVVTAS the “folding stability dG” value was 1.3 kcal/mol. With EIHIRTNGEEQARKVYKMLAKRNYDVKIEQHQGQWVVTAS the “folding stability dG” value was 1.65 kcal/mol. In the case of EIHIRTNGEEQARKVYKMLAKRNYDVKIEQHLGQWVVTAS, the “folding stability dG” value is reported as 1.51 kcal/mol. In the case of EIHIRTNGEEQARKVYKMLAKRNYDVKIEQHAGQWVVTAS, the “folding stability dG” value is reported as 1.7 kcal/mol. In the case of EIHIRTNGEEQARKVYKMLAKRNYDVKKEQHNGQWVVTAS, the “folding stability dG” value is reported as -0.269 kcal/mol. With EIHIRTNGEEQARKVYKMLAKRNYDVKWEQHNGQWVVTAS the “folding stability dG” value was 0.131 kcal/mol. With EIHIRTNGEEQARKVYKMLAKRNYDVKMEQHNGQWVVTAS the “folding stability dG” value was 1.69 kcal/mol. For EIHIRTNGEEQARKVYKMLAKRNYDVKLEQHNGQWVVTAS, the “folding stability dG” value was 1.56 kcal/mol. In the case of EIHIRTNGEEQARKVYKMLAKRNYDVKAEQHNGQWVVTAS, the “folding stability dG” value is reported as 0.154 kcal/mol. With EIHIRTNGEEQARKVYKMLAKRNYDVKVEQHNGQWVVTAS the “folding stability dG” value was 1.29 kcal/mol. In the case of EIHIRTNGEEQARKVYKMLAKRNYDVKYEQHNGQWVVTAS, the “folding stability dG” value is reported as 0.682 kcal/mol. In the case of EIHIRTNGEEQARKVYKMLAKRNYDVKTEQHNGQWVVTAS, the “folding stability dG” value is reported as -0.114 kcal/mol. In the case of EIHIRTNGEEQARKVYKMLAKRNYDVKSEQHNGQWVVTAS, the “folding stability dG” value is reported as -0.437 kcal/mol. With EIHIRTNGEEQARKVYKMLAKRNYDVKREQHNGQWVVTAS the “folding stability dG” value was -0.747 kcal/mol. In the case of EIHIRTNGEEQARKVYKMLAKRNYDVKFEQHNGQWVVTAS, the “folding stability dG” value is reported as 0.516 kcal/mol. With EIHIRTNGEEQARKVYKMLAKRNYDVKQEQHNGQWVVTAS the “folding stability dG” value was -0.461 kcal/mol.
